Laboratory results reported in patent publication US20240158448A1, “MULTIVALENT NANO-'SELF' PEPTIDES AND USES THEREOF” (THE TRUSTEES OF THE UNIVERSITY OF PENNSYLVANIA, priority 2021, published 2024).

Molecular target: human CD47 expressed on cells (red blood cells, K562 cells, THP-1 macrophages) (human) (UniProt Q08722)
Assay: cell-based or functional assay

% THP-1 macrophages phagocytosing opsonized RBCs: 30%
B1: mouse anti-human CD47 antibody B6H12 (BD Biosciences) (antibody, from another filing, V domains shown)
VH: EVQLVESGGDLVKPGGSLKLSCAASGFTFSGYGMSWVRQTPDKRLEWVATITSGGTYTYYPDSVKGRFTISRDNAKNTLYLQIDSLKSEDTAIYFCARSLAGNAMDYWGQGTSVTVSS
VL: DIVMTQSPATLSVTPGDRVSLSCRASQTISDYLHWYQQKSHESPRLLIKFASQSISGIPSRFSGSGSGSDFTLSINSVEPEDVGVYYCQNGHGFPRTFGGGTKLEIK
